{"source": "a protein production outcome set (Wang et al. 2014)"}
{"assay": "label from the status in PepcDB records"}
{"sequence": "MSIKYLYDRKKIAVTYGEEKYSYADIIKYVNYYSEFLDISKGDRVALMMENRPESIFSFFSIWAKKGIALSLDAGYTVEQLAFVLNDSKPKYIFVSNKIKEVVEKANEQVGNIVKIMVVDEITLPTDYVIKQEEYENDSNEDLAVIVYTSGTTGNPKGVMITYENIKTNMEGVRAVDLVTETDVILAMLPYHHIMPLCFTLILPMYMGVPIVLLTEISSASLLKALQENRVTVILGVPRVWEMLDKAIMTKINQSSLAKFMFKMASKINSMSIRKMLFSKVHKQFGGNIRLMVSGGAKIDKNILEDFRTMGFCAIQGYGMTETAPIITFNVPGRERSDSAGEVIPNVEVKIADDGEILVKGKNVMKGYYNNEQATKEAFDKDGWFHTGDLGKMDGKYLIIIGRKKEMIVLPNGKNIDPNDIEAEIIKNTDLIKEIAVTEYKEQLLAIIYPDFDQIKAKQIVNIKDAIKWEVIDKYNVTAPNYKKIHDIKIVKEELPKTRIGKIRRFMLKDLIEEKTENTDKKEAKKIIEVPAEMKEKFDIINKYMDERYQKAIDLDSHIELDLGFDSLDIVEFMNFLNSTFEITIVEQDFVENKTISAIIKLINDKAGKLVEKIDKNENLKKIIESDSNVKLPKDARYAKVLKFILSLMFRYYFKYKYRGKENLGEGAGIIVGNHQSYLDAFMLNNAFTYKELGGNYYIATALHFKSNFMKYLAGHGNIILVDANRNLKNTLQAAAKVLKSGKKLLIFPEGARTRDGQLQEFKKTFAILSKELNVPIYPFVLKGAYEAFPYNKKFPKRNNISVQFLEKIEPNDKTVEELVEETKNNIAKNYY", "protein production": "failed"}
{"sequence": "MSILDILILLAPIFFVIVLGWFAGHFGSYDAKSAKGVSTLVTKYALPAHFIAGILTTSRSEFLSQVPLMISLIIGIVGFYIIILLVCRFIFKYDLTNSSVFSLNSAQPTFAFMGIPVLGSLFGANEVAIPIAVTGIVVNAILDPLAIIIATVGESSKKNEESGDSFWKMTGKSILHGLCEPLAAAPLISMILVLVFNFTLPELGVKMLDQLGSTTSGVALFAVGVTVGIRKIKLSMPAIGIALLKVAVQPALMFLIALAIGLPADQTTKAILLVAFPGSAVAAMIATRFEKQEEETATAFVVSAILSLISLPIIIALTA", "protein production": "failed"}
{"sequence": "MSIPFSNTHYRIPQGFGNLLEGLTREILREQPDNIPAFAAAYFESLLEKREKTNFDPAEWGSKVEDRFYNNHAFEEQEPPEKSDPKQEESQISGKEEETSVTILDSSEEDKEKEEVAAVKIQAAFRGHIAREEAKKMKTNSLQNEEKEENK", "protein production": "failed"}
{"sequence": "MSIPLLEYKPSSQNQRVPGYEVPNEDTPRIYRIEDAAYDSELKELIWATYRQVFSEHVILKFFRQGNLESQLKNRAISVRDFVRGLAKSEAFKTLVIKSNSNYRLVELALKRLLGRAPYNKDEEIAWSIKIATNGWDGFVDALLDSEEYQSNFGENIVPYQRRRYKDRPFNLVTPRYGNYWRDKLESERYIEGDIKNFLELAKSIEIKTVTFTPVSTANIKIPDTTRNTTPTGIPISVNPSANFPVRLEHHHHHH", "protein production": "failed"}
{"sequence": "MSIQAPPRLLELAGQSLLRDQALSISAMEELPRVLYLPLFMEAFRRRHFQTLTVMVQAWPFTCLPLGSLMKTLHLETLKALLEGLHMLLTQKDRPRRWKLQVLDLRDVDENFWARWPGAWALSCFPETMSKRQTAEDCPRMGEHQPLKVFIDICLKEIPQDECLRYLFQWVYQRRGLVHLCCSKLVNYLTPIKHLRKSLKIIYLNSIQQLEIRNMSWPRLIRKLRCYLKEMKNLRKLVFSRCLQNPLENLELTYGYLLEEDMKCLSQYPSLGYLKHLNLSYVLLFRISLEPLGALLEKIAASLETLILEGCQIHYSQLSAILPGLSHCSQLTTFYFGRNCMSMGALKDLLCHTSGLSKLSLETYPAPEESLNSLVRVDWEIFALLRAELMCTLREVRQPKRIFIGPTPCPSCGSSPSEELELHLCC", "protein production": "failed"}
{"sequence": "MSIRNPNSTLLYRAHSRPPVKLCAPPRSLLPSRRHFSAPRAVVSYPGIRFGFTSPEVLLNRSVVAFAASHEDSGESGVEVGKEKSDIDVEDDTSKEAWKQTLESFKEQVSKMQSVSSEAYSVNSQKAMTVLKETSEQLRIQAEKAKEELGTKAKVVSEEGREYILKAAEESPSDVKEIVEAFASTEDLKNVSRANDFHVGIPYGLLLLVGGFINFMVSGSIPAIRFGVILGGALFALSLASLKSHRKGESSTKFLKGQMAIVAIIFLRELRLLLSQKSTFLGFFTTLTSGGVLGFYLYKMVVKREKGPTLEDGGEDESSDGFVRSEG", "protein production": "failed"}
{"sequence": "MSIRPATHAGSWYSNRAQELSQQLHTYLIKSTLKGPIHNARIIICPHAGYRYCGPTMAYSYASLDLNRNVKRIFILGPSHHIYFKNQILVSAFSELETPLGNLKVDTDLCKTLIQKEYPENGKKLFKPMDHDTDMAEHSLEMQLPMLVETLKWREISLDTVKVFPMMVSHNSVDVDRCIGNILSEYIKDPNNLFIVSSDFCHWGRRFQYTGYVGSKEELNDAIQEETEVEMLTARSKLSHHQVPIWQSIEIMDRYAMKTLSDTPNGERYDAWKQYLEITGNTICGEKPISVILSALSKIRDAGPSGIKFQWPNYSQSSHVTSIDDSSVSYASGYVTIG", "protein production": "failed"}
{"sequence": "MSIVIVGGNERMVCQYEDICKGYGCKAKVFAKEKGAMKKKIGAPDLMILFTGTVSHKMVNCAVEEAKKKSIPVCRCHTSSASALESILREYCALEHHHHHH", "protein production": "failed"}
{"sequence": "MSIYNSIGKQYSQTRVPDIRIVNAIINLLNLPKGSVIADIGAGTGGYSVALANQGLFVYAVEPSIVMRQQAVVHPQVEWFTGYAENLALPDKSVDGVISILAIHHFSHLEKSFQEMQRIIRDGTIVLLTFDIRLAQRIWLYDYFPFLWEDALRFLPLDEQINLLQENTKRRVEAIPFLLPHDLSDLFAAAAWRRPELYLKAEVRAGISSFALANQDLVEKGLELLTADLNNGEWIRKYGEIHHLQEIDIGYRFIYTTLDK", "protein production": "not failed"}
{"sequence": "MSKANVYQQRPEPGVHAESPLHHAELHKLAGKTAAKAGIVLREKKLLGHLVLRGDAADPAFAAAVHQALGLELPVALTLVASGETSLQWLAPDEWLLIVPGGEEYAVEQRLRQALGEELHYAVVNVSGGQTLLELSGANVRELLMKSTSYDVHPSNFPVGKAVGSIFAKSQCVIRHTGEDTWELVVRRSFADYFWLWLQDASAEYGLQVAA", "protein production": "failed"}
{"sequence": "MSKAQKRKRLNKYDGESKTPANKSTVDGGNPYPTLLRPTAEECRDVRDALLSLHGFPPEFANYRRQRLRSFSAVDDHDTQCNLKSETLNETEEESVLDGLVKILLSQNTTESNSQRAFASLKATFPKWDDVLNAESKSIENAIRCGGLAPKKAVCIKNILNRLQNERGRLCLEYLRGLSVEEVKTELSHFKGVGPKTVSCVLMFNLQHNDFPVDTHVFEIAKALGWVPKTADRNKTYVHLNRKIPDELKFDLNCLLYTHGKICSNCKKNVAKPKAKVASPDDCPLVGFYDLIV", "protein production": "failed"}
{"sequence": "MSKAVLTTKVTPGYKDLPEVRYHFPRTYLNQVRQAVGDYILYYEPRRTTVELSSFGGRQSYFGVARVVDLVEDKDQADHYYALVDDYLDFDRPVPFVEGGHYYESALRKSDGSTNKGAFGRAVRLIPDAEFDQIWKAGFAPILGEETSRHQPRQFEISEPTVPFERPIIEMTISRPFRERSFMYNVRAAYENRCAMTGLRLINGGGRPEVQAAHIQPVAEKGPDSVRNGLALSGTVHWMFDRGLISIGDDYKILTAENHVPDDALRLLNHSRTINLPNDTAFYPNALFLKFHRDKIFKG", "protein production": "failed"}
{"sequence": "MSKDFDLIIRNAYLSEKDSVYDIGIVGDRIIKIEAKIEGTVKDEIDAKGNLVSPGFVDAHTHMDKSFTSTGERLPKFWSRPYTRDAAIEDGLKYYKNATHEEIKRHVIEHAHMQVLHGTLYTRTHVDVDSVAKTKAVEAVLEAKEELKDLIDIQVVAFAQSGFFVDLESESLIRKSLDMGCDLVGGVDPATRENNVEGSLDLCFKLAKEYDVDIDYHIHDIGTVGVYSINRLAQKTIENGYKGRVTTSHAWCFADAPSEWLDEAIPLYKDSGMKFVTCFSSTPPTMPVIKLLEAGINLGCASDNIRDFWVPFGNGDMVQGALIETQRLELKTNRDLGLIWKMITSEGARVLGIEKNYGIEVGKKADLVVLNSLSPQWAIIDQAKRLCVIKNGRIIVKDEVIVA", "protein production": "not failed"}
{"sequence": "MSKELLGVSAVGLMVLGEFCAIYSEVVVARLAHSGNTSGAELALPVLIMCLGGICLLAAYWLGYVAVGDIWIITVVSVTSLLLLEPLVIWALFQQAPGRGALIGFCLGALGMLSAVFL", "protein production": "failed"}
{"sequence": "MSKFTDRIKNVFTVDYDDYDEDYYDDYEDDDMGLEPEKPEKKERATKSRSERFSARRAATRSDDDIIDDYDEVTAEHEEEPAPHVKTRATARAVKNSRSSRNHKVVPMKSSSEMEVCVIKPSYYENTRDIIDTLLEGKSVVLNLEGMKLDLAQRIVDSVSGGCYAIQGNLQKISGYIYLVTPHSVDITGDFQDLVHDSSDYSSTAYSRRNY", "protein production": "failed"}
{"sequence": "MSKGRDILTKTIILALREVAPGLEAVLEAHLRATLNSGIELAYDDPQKFKEAVSKLFGEYSARLLEMVIISKLKGRLGEDIEANSLEELVSEIRKIYGE", "protein production": "not failed"}
{"sequence": "MSKHVNWSGVFPAVTTQFNADFSVNLEETHTVISNLVRDGVSGLVVCGSVGENTSLTIEEKMAVTEVAKDASGGRVPVICGIAEFTSAGAAKVAKAVERVGVDGIMVMPALVYSSKPHETAEHFRSVASGTDLPVMVYNNPPIYRNDVTPDILVSLADCENIVCFKDSSGDTRRFIDVRNQVGERFILFAGLDDVVLESVAVGAQGWISGMSNVFPKEGETIFRLARAGRFAEAMPIYEWLMPILHLDARPDLVQCIKLCEQLAGRGSALTRPPRLALRGADREHVERIMAKALA", "protein production": "failed"}
{"sequence": "MSKIFVNPSAIRAGLADLEMAEETVDLINRNIEDNQAHLQGEPIEVDNLPEDMGRLHLDDGKSPNPGEMAKVGEGKYREDFQMDEGEDPSLLFQSYLDNVGVQIVRQIRSGERFLKIWSQTVEEIISYVAVNFPNPPGKSSEDKSTQTTGRELKKETTPTPSQRESQSSKARMAAQTASGPPALEWSATNEEDDLSVEAEIAHQIAESFSKKYKFPSRSSGILLYNFEQLKMNLDDIVKEAKNVPGVTRLARDGSKLPLRCVLGWVALANSKKFQLLVESNKLSKIMQDDLNRYTSC", "protein production": "not failed"}
{"sequence": "MSKILLTGASGYIGSHLKNKLKKDHEVIAISRNTHNKTDEENVTWKSADLFDLDEITKVMKDVDTAIYLVHSMMPSAKLTQASFEDMDALLADNFARAAQKQGVKHIVYMSGLIPENDELSAHLRSRLECEKILGDYGIPVSTLRAGLIIGAKGSSYPILKRLVKRLPAMVLPSWAYNKIAPVAIDDVIDGLAALVNRTPKDNEAIDITGPEVMNYKTLIQRTANVLDKRLPMLDLPIIPIIVSRYWVQLISNVPKEMVYPLMNSLTHDMVPHRKRVVSNLSVGNITFEDSVKRALREEQKTSKKKSDSKNSQSFGRMHQEIKDVRAITRFKIPEGYSIKDVTKEYAKFINNITLHLVKGTINEREFNMNLPFINKFILKMERDEADSTEDMVVYNIVGGDLAHSNDGGNARFEFRRIRNTNEGIIALQEYEPTLPWVVYKLTQAKAHKTVMNIFKNKMARLAQQKNVKDETYMSNRVTIGVTVASAFVIGSAVGFQLFKKHQIKKNTMSNAEL", "protein production": "failed"}
{"sequence": "MSKKIILITGASSGFGRLTAEALWSRPPGIRLDARHCRPQRVQCSPALPGTMTLTCAPWSSTSSRRSVDRAIDQIIGEDGRIDVLIHNAPHGVRTRRSIHARAVRRALRYQCAPNASTGRRCRTCAGKSMGFSWISSSSSAGGTPPYLAPYFAAKAHGCHRCAVRTAVALGHRDVDHRPVPSRAAPITSPIPAYRTTTPAAEYEAGPNAGLGEEIKKAFAAIVAGRRCVTGCRCHCSGCGHRVRQARSGCTSTRPKTAPMWDSAFWTGRAEMLHRVGLSDLLKPRALA", "protein production": "not failed"}
{"sequence": "MSKKKILIFISVILIIFGGVYLKMKYDEKAKQKEIYYKEQQERITLYLKYNTKKPNTIKSVHFTSLEQGPMGDAIIEGYINNNKEDEFVAFASPENNYQFGGGLTADVKIFKLLKPANESRSPNEIKKDLDKKKERLEHHHHHH", "protein production": "not failed"}
{"sequence": "MSKKSGLSFLWLSAVAFVIDLLTKYIVVQKFDLYESVNVLPVFNLTYVRNYGAAFSFLADHSGWQQYFFILLALAISGMLVYFLAKNNAEQKIQNSAYALIIGGALANMVDRAYNGFVVDFFDFYWDIYHYPVFNIADIAICIGAGLLVLDAFKSEKKKVQDKQVEKCGQK", "protein production": "failed"}
